Assay results: patent US20230212306A1 (Daiichi Sankyo, published 2023)

T1: human TLR7-Flag-His×6 (human TLR7 variant 2), expressed in Ba/F3 cells together with human Unc93B1-HA×2 (human, UniProt Q9NYK1 27-1049)
T1 construct: Cells were permeabilised with 0.1% saponin before staining; also called hTLR7-Flag-His×6; not shown: Flag-His×6 tag added to the C-terminus
T1 sequence: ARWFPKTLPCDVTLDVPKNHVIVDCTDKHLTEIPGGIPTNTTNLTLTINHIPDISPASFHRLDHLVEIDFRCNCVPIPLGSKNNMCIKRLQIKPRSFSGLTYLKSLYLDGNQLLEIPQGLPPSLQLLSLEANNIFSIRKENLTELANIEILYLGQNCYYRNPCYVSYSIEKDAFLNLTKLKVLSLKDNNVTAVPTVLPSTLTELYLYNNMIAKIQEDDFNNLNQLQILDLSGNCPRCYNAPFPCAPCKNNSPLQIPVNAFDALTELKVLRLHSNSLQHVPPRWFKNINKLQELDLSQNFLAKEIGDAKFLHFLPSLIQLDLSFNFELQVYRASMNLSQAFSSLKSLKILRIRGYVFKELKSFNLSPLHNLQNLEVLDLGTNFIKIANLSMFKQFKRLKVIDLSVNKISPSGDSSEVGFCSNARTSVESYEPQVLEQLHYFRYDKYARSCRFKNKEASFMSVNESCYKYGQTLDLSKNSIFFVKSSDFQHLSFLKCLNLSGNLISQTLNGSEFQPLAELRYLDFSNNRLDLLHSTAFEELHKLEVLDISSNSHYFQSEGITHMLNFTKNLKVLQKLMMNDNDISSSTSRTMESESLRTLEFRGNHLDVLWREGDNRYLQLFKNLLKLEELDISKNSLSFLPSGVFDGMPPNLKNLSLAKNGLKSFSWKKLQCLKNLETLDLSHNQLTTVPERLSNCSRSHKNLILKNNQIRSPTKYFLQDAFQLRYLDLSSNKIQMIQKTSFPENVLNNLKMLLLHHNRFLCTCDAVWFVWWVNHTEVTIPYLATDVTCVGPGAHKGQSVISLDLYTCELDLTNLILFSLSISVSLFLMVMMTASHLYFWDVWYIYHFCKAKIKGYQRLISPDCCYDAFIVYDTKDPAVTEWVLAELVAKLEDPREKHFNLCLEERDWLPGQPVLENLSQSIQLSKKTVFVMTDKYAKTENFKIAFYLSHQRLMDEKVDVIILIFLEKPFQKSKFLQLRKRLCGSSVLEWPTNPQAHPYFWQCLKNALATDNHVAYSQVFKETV


Each binder was assayed against T1, human TLR7-Flag-His×6 (human TLR7 …) (assay: flow cytometry (MFI), antibody dilution series on saponin-permeabilised Ba/F3 cells expressing human TLR7-Flag-His×6/hUnc93B1-HA×2).
Description: A Ba/F3 cell line expressing human TLR7-Flag-His×6/hUnc93B1-HA×2 was subjected to membrane permeation with 0.1% Saponin and stained using the dilution series of chimeric AT01 antibody, NB7 antibody, and FAN2 antibody at the antibody concentrations obtained in Example 4, and the secondary antibody, Goat anti-human IgG Fc-PE (eBioscience). The binding activity of each antibody was evaluated by comparing the MFI based on flow cytometry analysis.

binding result	Binder
binds	cAT01 antibody (antibody, human IgG1, V domains shown, Mouse variable regions on human IgG1 / human kappa constant regions; also called chimeric AT01 antibody; AT01 chimeric anti-human TLR7 antibody) VH: QVQLQQPGAELVKPGASVNLSCKASGYTFTNNWLHWVKQRPGRGLEWIGDIYPSNGRTNYNEQFKTKATLTVDKSSSTAYMQLSSLTSEDSAVYFCARERGYFDYWGQGTALTVSS VL: DIQMTQSPSSLSTSLGGKVTITCKASQDINKYIAWYQHKPGKGPRLLIHYTSTLQPGIPSRFSGSGSGRDYSFSISNLEPEDIATYYCLQYDYLLTFGAGTKLELKR
binds	cFAN2 antibody (antibody, human IgG1, V domains shown, Mouse variable regions on human IgG1 / human kappa constant regions; also called chimeric FAN2 antibody; FAN2 chimeric anti-human TLR7 antibody) VH: QVQLKESGPGLVAPSQSLSITCTVSGFSLTGYGVNWVRQPPGKGLEWLGMIWGDGSTDYNSALKSRLSIRKDNSKSQVFLKMNSLQTDDTARYYCARDKGYDGYYYAMDYWGQGTSVTVSS VL: DIQMTQSPASLSASVGETVTITCRASENIYSYLAWYQQKQGKSPQLLVYDAKTLAEGVPSRFSGSGSGTQFSLKINSLQPEDFGSYYCQHHYGIPYTFGGGTKLEIKR
binds	cNB7 antibody (antibody, human IgG1, V domains shown, Mouse variable regions on human IgG1 / human kappa constant regions; also called chimeric NB7 antibody; NB7 chimeric anti-human TLR7 antibody) VH: DVQLQESGPGLVKPSQSLSLTCTVTGYSITSDYAWNWIRQFPGNKLEWMGHISYRGNTNYNPSLKSRISITRDTSKNQFFLQLNSVTTEDTATYYCASWNYYGYVDYAMDYWGQGTSVTVSS VL: DIQMTQTPSSLSASLGDRVTISCRASQDISNYLNWYQQKPDGTVKLLIYYTSRLHSGVPSRFSGSGSGTDYSLTINNLEQEDIATYFCQQGDTFPTFGGGTKLEIKR
